According to patent US20190298769A1:

Target: 4-1BB receptor on Jurkat cells that over express 4-1BB/NFκB/Luc (UniProt Q07011)
Test: cell-based or functional assay

Chain of UniProt Q07011 (Q07011 24-255 limits assumed): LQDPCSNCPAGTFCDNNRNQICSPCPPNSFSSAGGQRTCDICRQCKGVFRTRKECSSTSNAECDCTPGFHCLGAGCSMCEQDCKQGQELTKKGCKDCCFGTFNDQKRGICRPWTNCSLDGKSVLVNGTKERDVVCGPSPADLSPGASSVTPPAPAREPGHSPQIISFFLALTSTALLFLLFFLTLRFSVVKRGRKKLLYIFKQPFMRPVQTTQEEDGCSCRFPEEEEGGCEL

4-1BBL construct (human extracellular 4-1BBL - 4-1BBL linker - GPA) on the surface of engineered erythroid cells (ligand)
NFκB activation (luciferase activity of Jurkat cells that over express 4-1BB/NFκB/Luc): 80 to 100 fold | NFκB activation relative to the agonistic 4-1BB monoclonal antibody: 15 fold
